Laboratory results taken from article PMC4837325, “Arabidopsis HIGH PLOIDY2 Sumoylates and Stabilizes Flowering Locus C through Its E3 Ligase Activity” (Frontiers in Plant Science, 2016).

Target: T1, GST-HPY2 (Arabidopsis thaliana, UniProt Q8GYH7 1-249)
T1 construct: HIGH PLOIDY2 (HPY2), E3 SUMO ligase of Arabidopsis, full-length cDNA cloned into pGEX4T-1; also called HIGH PLOIDY2; AtHPY2; source: E. coli BL21, purified (glutathione resin)
T1 sequence (looked up): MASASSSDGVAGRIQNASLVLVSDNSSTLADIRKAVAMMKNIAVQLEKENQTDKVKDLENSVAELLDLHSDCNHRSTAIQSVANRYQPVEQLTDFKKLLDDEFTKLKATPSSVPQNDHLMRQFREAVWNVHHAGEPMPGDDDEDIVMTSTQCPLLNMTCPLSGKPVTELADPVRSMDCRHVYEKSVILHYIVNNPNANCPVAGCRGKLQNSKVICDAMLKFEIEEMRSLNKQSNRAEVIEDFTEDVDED
Experiment: pull-down; in vitro GST pull-down, 2 ug each of GST-HPY2 bait and His6-FLC prey; His6-FLC detected by Western blot with anti-His antibody
Settings: both partners purified

B1: His6-FLC (natural protein, Arabidopsis thaliana, UniProt Q9S7Q7 1-196, looked up)
chain: MGRKKLEIKRIENKSSRQVTFSKRRNGLIEKARQLSVLCDASVALLVVSASGKLYSFSSGDNLVKILDRYGKQHADDLKALDHQSKALNYGSHYELLELVDSKLVGSNVKNVSIDALVQLEEHLETALSVTRAKKTELMLKLVENLKEKEKMLKEENQVLASQMENNHHVGAEAEMEMSPAGQISDNLPVTLPLLN
notes: Flowering Locus C (FLC), MADS-box transcription factor of Arabidopsis, full-length cDNA cloned into pET28a; also called Flowering Locus C; source: E. coli BL21, purified (Ni2+-NTA resin)
binding result: binds
